In patent US10736971B2, “Peptide-based molecules for modulating car expression or accessibility and uses thereof” (Wright State University, priority 2015, dated 2020):

System: AdV-β-Gal
Assay: AdV-β-Gal transduction of transfected CAR-deficient CHO-K1 cells
Format: cell-based, Chinese hamster
Conditions: CHO-K1 transfected with CAR^Ex8, MAGI-1 and PDZ domain plasmids, MOI 100
Excerpt: CAR-deficient CHO-K1 cells were A) single, B) double, or C) triple transfected with plasmids encoding CAR^Ex8, MAGI-1 (black bars), PDZ1 domain (dotted bars), or PDZ3 domain (white bars), and balanced with empty pcDNA3.1 plasmid, followed by AdV-β-Gal (MOI 100) transduction. CHO-K1 cells were double transfected with CAR^Ex8 and pcDNA3.1, MAGI-1, PDZ3, or PDZ1 and analyzed for D) total CAR^Ex8 protein or E) cell-surface biotinylated CAR^Ex8 protein expression. Quantification of at least three individual experiments is shown in all bar graphs. *p<0.05.

Molecule	Adenovirus infection (AdV-β-Gal transduction)
MAGI-1 PDZ3 domain: MAGI-1 PDZ3 decoy domain, expressed from transfected plasmid in CHO-K1 cells (protein, PEPTIDE WILL BE CREATED USING CONVENTIONAL MEANS, MAGI-1 PDZ3 decoy domain, expressed from transfected plasmid in CHO-K1 cells) KETGFGFRILGGNEPGEPIYIGHIVPLGAADTDGRLRSGDELICVDGTPVIGKSHQLVVQLMQQAAKQGHVNLTVR	decreases
PDZ1 domain: MAGI-1 PDZ1 decoy domain, expressed from transfected plasmid in CHO-K1 cells (protein, PEPTIDE WILL BE CREATED USING CONVENTIONAL MEANS, MAGI-1 PDZ1 decoy domain, expressed from transfected plasmid in CHO-K1 cells) RKSSRGFGFTVVGGDEPDEFLQIKSLVLDGPAALDGKMETGDVIVSVNDTCVLGHTHAQVVKIFQSIP	inhibits MAGI-1-mediated CAR^Ex8 suppression to allow adenovirus infection
